Measured values as given in US20170226204A1.
Where two headings read alike, the source gives them in different places.

How the values were obtained:
[1] = target: human CD7 molecule (human) (UniProt P09564); assay: flow cytometry on H460 cells transfected with pcDNA3.1-CD7
[2] = target: human CD7 molecule (human) (UniProt P09564); assay: as above; remark: listed apart in the source
[3] = target: human CD7 molecule (human) (UniProt P09564); assay: flow cytometry on CD7-positive Jurkat cells

Chain of human CD7 molecule (human) (P09564 26-240): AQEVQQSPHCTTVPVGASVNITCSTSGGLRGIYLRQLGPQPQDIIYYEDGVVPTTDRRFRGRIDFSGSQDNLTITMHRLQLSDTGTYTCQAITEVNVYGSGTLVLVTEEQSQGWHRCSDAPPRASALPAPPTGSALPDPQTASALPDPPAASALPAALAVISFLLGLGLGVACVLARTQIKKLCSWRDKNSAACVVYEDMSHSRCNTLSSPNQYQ

- transfection efficiency (percent of cells stained) [1]: 18%
- transfection efficiency (percent of cells stained) [2]: 18.8%
- positive rate of CD7+ [3]: 96.6%
Substance: commercial CD7 antibody (BD CD7-PE)
